Experimental findings from the RNAGym collection of RNA variant scans (doi:10.7554/elife.90254) are described below.

B1: OR4K15 (parent)
chain: GUUAACGGUCAUAGGCCAUGGAAACUAGGAGCACCAUUUCGCUGCCAGUGAAGAAAUGAACAAAGAAAAUCUGGGCCAGGCAGGCAUCAAAAGAAAUAGUCUUGCGCUCAACCAGAAAGUCUGUAAUCAUUUUAAGGGUA

In the data set the parent is B1. The data set is described as follows: self-cleavage, relative activity (ratio to wild type); higher = more cleavage; in vitro, sequencing; the parent is a self-cleaving ribozyme.
Take A54G U97C: the self-cleavage was 1.37. Take A51U U108C: the self-cleavage turned out to be 0.02. For the variant A55G A67G, the self-cleavage was determined as 1.21. Regarding A55G A67U, the self-cleavage turned out to be 1.53. A52U U122C: the self-cleavage is 0.74. As to A52U U102A, the self-cleavage was 0.36. As for A51U U97C, the self-cleavage amounted to 1.37. The value for A54U U122A was 1.45; that for A54U U122C was 1.27. In the case of A52G U127C, the self-cleavage was determined as 0.95.

Consider A52G A118G, for which the self-cleavage is 1.21.

For the variant A54U U133A, the self-cleavage came to 1.49. Take A54U U133C: the self-cleavage came to 2.23.

Regarding G53U A54U, the self-cleavage was 1.67.

Consider A52U U87A, for which the self-cleavage was determined as 1.78. A52U A59U: the self-cleavage is 1.99. Consider A54G A126G, for which the self-cleavage was 0.64. In the case of A54U U100C, the self-cleavage is 1.43. As for A52U A69U, the self-cleavage amounted to 1.98. In the case of A52U A69G, the self-cleavage is 2.44. For the variant G53C, the self-cleavage was 1.74. Consider G53A, for which the self-cleavage came to 1.21. Consider G53U, for which the self-cleavage came out at 1.7. As to A52U A125G, the self-cleavage was 0.79. Regarding A51U U57C, the self-cleavage turned out to be 1.58.

Turning to A52C G84U, the self-cleavage came to 0.51. As for G53U U127A, the self-cleavage amounted to 1.92. The value for A54G G93A was 1.21. Regarding A51U A64U, the self-cleavage was 1.15. On to A52G A110U, for which the self-cleavage turned out to be 1.17. Regarding A52G A110C, the self-cleavage came out at 0.26. As to A52U G99A, the self-cleavage stood at 0.22. Consider A52C A62G, for which the self-cleavage came to 0.91. A51U C128A: the self-cleavage turned out to be 0.45. The value for A52G A117U was 0.97. Turning to A52C A94G, the self-cleavage came to 2.5. The value for A52G C71U was 0.44; that for A51G U133C was 1.46.

For the variant A55G C88U, the self-cleavage came to 1.02. As for A54G A67G, the self-cleavage is 1.57. On to A54G G74U, for which the self-cleavage came out at 0.11.

For A52G A68G, the self-cleavage was determined as 1.5. For the variant A52G A68U, the self-cleavage came to 1.66.

On to A52U U131C, for which the self-cleavage amounted to 0.4. With A54C U122C, the self-cleavage is 0.42. As to A54G C71U, the self-cleavage worked out at 0.58. On to A52G A69G, for which the self-cleavage was 0.65. On to A51U U87C, for which the self-cleavage is 0.54. As for G53A U103C, the self-cleavage was 0.64. On to A54G U70C, for which the self-cleavage amounted to 0.61. On to G53A A111G, for which the self-cleavage amounted to 0.02. The value for A54G A117G was 1.68; that for G53C U57G was 0.65; that for A52G C88U was 1.39. As to G53A G136U, the self-cleavage is 2.03. As for A54G A59G, the self-cleavage is 0.84.

Consider A54G A86G, for which the self-cleavage is 1.28. Turning to A55G A129G, the self-cleavage amounted to 0.99. Turning to A55G A129C, the self-cleavage was found to be 0.72. As to A54G A68G, the self-cleavage worked out at 0.91.

For A54G U124A, the self-cleavage is 0.9.

Regarding A55C A59G, the self-cleavage was found to be 0.36. Take A51U U103C: the self-cleavage was 1.35.

Regarding A55G A118G, the self-cleavage came to 1.23. The value for A54G A98G was 0.33; that for A54U C109U was 0.39; that for A54U A94G was 1.64.

Consider A55G C107U, for which the self-cleavage worked out at 0.05.

As to A55G C107A, the self-cleavage came to 0.02. Regarding A52C A82G, the self-cleavage turned out to be 0.55. Consider A55G A92G, for which the self-cleavage was determined as 0.67. As for A52U A78G, the self-cleavage is 0.24. For A54G A64G, the self-cleavage was found to be 1.77. Regarding G53U A126G, the self-cleavage is 1.4. The value for A54U A56U was 1.8. On to G53A U100C, for which the self-cleavage was determined as 2.52.

On to A52G A116U, for which the self-cleavage is 0.12. With A54G A95U, the self-cleavage was found to be 1.53. The value for A51U U124C was 0.77; that for A52G G83A was 1.07.

On to A52G U100A, for which the self-cleavage came out at 0.65. The value for A52G U100C was 2.01; that for A54G G84A was 2.33. With A54G A114C, the self-cleavage turned out to be 0.09.

Take A54G A114U: the self-cleavage amounted to 0.07. As to A54G A114G, the self-cleavage is 0.4. Take A54U U132C: the self-cleavage came to 2.02.

In the case of A52G U70A, the self-cleavage was found to be 0.45. In the case of A52G U70C, the self-cleavage turned out to be 0.79.

Consider A55G A96G, for which the self-cleavage came to 0.83. The value for A52G G75A was 0.23.

As for A55G A78U, the self-cleavage turned out to be 0.18. The value for A55G A78G was 0.23. In the case of A52G U103C, the self-cleavage was determined as 0.45. The value for A54G C77U was 1.46. The value for A55G C76U was 0.15; that for A51U G58A was 1.56. Turning to A55C U124C, the self-cleavage was found to be 0.95. For the variant A55G A63U, the self-cleavage was 1.1. Take A55G A63G: the self-cleavage is 1.43. The value for A54G C85U was 1.39.

A52U U72G: the self-cleavage was 0.39. On to A52U U72C, for which the self-cleavage was 0.17. Take A51U A96G: the self-cleavage was determined as 1.32. Consider A52G A66G, for which the self-cleavage amounted to 1.75.

Regarding A52G A66U, the self-cleavage stood at 1.54. The value for A55G G58A was 1.63; that for A54C U120C was 0.93; that for A51U A82C was 0.24. In the case of A55G G99A, the self-cleavage came out at 0.16. On to A52G U57C, for which the self-cleavage was 1.1. With A54G U127A, the self-cleavage came out at 2.16. Turning to A52G A95C, the self-cleavage was determined as 0.6.

Regarding A55G C113U, the self-cleavage amounted to 0.03. Regarding A51U A90G, the self-cleavage stood at 0.91.

Regarding G53U U87C, the self-cleavage was 0.98. The value for A55G A62G was 0.75; that for A52G U72A was 0.4; that for A54G C88U was 1.51. The value for A55G A68U was 1.2; that for A55G A68G was 1.23; that for A55G A68C was 2.11. For A51U A94U, the self-cleavage was 1.26. For A51U A94C, the self-cleavage was found to be 0.55. For the variant G53U A60U, the self-cleavage came to 1.71.

Regarding A51U G93A, the self-cleavage turned out to be 1.71. For A55G A60G, the self-cleavage was 1.

In the case of A55G A60U, the self-cleavage came to 1.62. The value for A54U U120C was 0.32; that for A54C A68G was 1.03. The value for A54C A118G was 1.49; that for A54U A118G was 0.95; that for A52C U103A was 0.98.

A54G U132C: the self-cleavage came out at 1.28.

With A54G A134U, the self-cleavage was determined as 1.32. A52G A86G: the self-cleavage was determined as 1.41. Turning to A52U U97C, the self-cleavage stood at 0.96. Regarding A51U A56G, the self-cleavage was found to be 0.93. On to A52U A98U, for which the self-cleavage turned out to be 1.72. For the variant A52U A117G, the self-cleavage amounted to 1.11. As for A52G A135U, the self-cleavage turned out to be 1.37. With A52G A135G, the self-cleavage came to 1.44.

For the variant A52U C113U, the self-cleavage is 0.06. For the variant A55G A91U, the self-cleavage came out at 2.07. Consider A54U A95G, for which the self-cleavage was 2.47. Consider A55G C101U, for which the self-cleavage turned out to be 0.38.

With A52G A91U, the self-cleavage was found to be 2.17.

In the case of A54G G115A, the self-cleavage is 0.25. On to A52U U57C, for which the self-cleavage is 1.45. Regarding G53A G75A, the self-cleavage came to 0.09.

For A51U A60G, the self-cleavage amounted to 0.92. G53A A86G: the self-cleavage worked out at 1.83. As to A54G C105U, the self-cleavage is 0.36. The value for A52G A60U was 0.9. Take A52G A60G: the self-cleavage was 1.32. Regarding A51U U122A, the self-cleavage is 0.74. As for A51U U122C, the self-cleavage worked out at 1.26. The value for A52C A78C was 0.21. A54U A90G: the self-cleavage came to 0.85. Consider A54G A60U, for which the self-cleavage stood at 1.59.

As for A54G A60G, the self-cleavage came out at 1.02. The value for A55G A135U was 0.94; that for A51U A118G was 0.6; that for A55G A59G was 1.17.

With A52U A54U, the self-cleavage worked out at 1.62. The value for A54G G137U was 1.44; that for A55G A86U was 1.26.
